How the values were obtained:
[1] = biological target: HAdV-D15 fiber knob protein (human adenovirus D15); assay: crystal structure; apo crystals of recombinant fiber knob protein; Pact Premier Screen, 18 °C, data at 100 K; trimer seen in the structure
[2] = biological target: HAdV-D30 fiber knob protein (human adenovirus D30); assay: as above
[3] = biological target: HAdV-D32 fiber knob protein (human adenovirus D32); assay: as above
[4] = biological target: HAdV-D29 fiber knob protein (human adenovirus D29); assay: as above
[5] = biological target: HAdV-D53 fiber knob protein (human adenovirus D53); assay: as above
[6] = biological target: T1, HAdV-D29 fiber-knob protein (Human adenovirus 29, UniProt E1CIQ3); assay: X-ray crystal structure of soaked crystal; format: binding; conditions: 10 mM soak; conserved apical pocket; mixture of alpha and beta anomers
T1 construct: gene L5; trimer

[7] = biological target: T2, HAdV-D30 fiber-knob protein (Human adenovirus 30, UniProt M0QTV3); assay: X-ray crystal structure of soaked crystal; format: binding; conditions: 10 mM soak; conserved apical pocket; mixture of alpha and beta anomers
T2 construct: gene L5; trimer

[8] = biological target: T3, HAdV-D53 fiber-knob protein (Human adenovirus 53, UniProt E5RWD1); assay: X-ray crystal structure of briefly soaked crystal; format: binding; conditions: 10 mM, very short soak; conserved apical pocket; beta anomer modelled
T3 construct: gene L5; trimer

[9] = biological target: T4, HAdV-D25 fiber-knob protein (Human adenovirus 25, UniProt M0QUM1); assay: X-ray crystal structure of soaked crystal; format: binding; conditions: 10 mM soak; conserved apical pocket; mixture of alpha and beta anomers
T4 construct: gene L5; trimer

[10] = biological target: HAdV-D24 fiber knob protein (human adenovirus D24); assay: crystal structure; apo crystals of recombinant fiber knob protein; Pact Premier Screen, 18 °C, data at 100 K; trimer seen in the structure

Molecule: HAdV-D15 fiber knob protein (domain or fragment)
- stoichiometry N [1]: 3

Molecule: HAdV-D30 fiber knob protein (domain or fragment)
- stoichiometry N [2]: 3

Molecule: HAdV-D32 fiber knob protein (domain or fragment)
- stoichiometry N [3]: 3

Molecule: HAdV-D29 fiber knob protein (domain or fragment)
- stoichiometry N [4]: 3

Molecule: HAdV-D53 fiber knob protein (domain or fragment)
- stoichiometry N [5]: 3

Molecule: CC(=O)N[C@H]1[C@H]([C@H](O)[C@H](O)CO)OC(O)(C(=O)O)C[C@@H]1O (mixture of isomers) [sialic acid]
- X-ray crystal structure of soaked crystal [6]: four structures of HAdV-D25, D29, D30 and D53 in complex with sialic acid
- X-ray crystal structure of soaked crystal [7]: four structures of HAdV-D25, D29, D30 and D53 in complex with sialic acid
- X-ray crystal structure of briefly soaked crystal [8]: short soak allowed only two of four trimers in the asymmetric unit to bind β-sialic acid
- X-ray crystal structure of soaked crystal [9]: four structures of HAdV-D25, D29, D30 and D53 in complex with sialic acid

Molecule: HAdV-D24 fiber knob protein (domain or fragment)
- stoichiometry N [10]: 3
